Assay results: the supplement of paper PMC9170038

Test system: MS2 coat protein
Assay: apparent KD of MS2 coat protein; designed switch direction (-1 OFF switch, 1 ON switch): -1; higher = weaker reporter binding
Outline: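 The reported apparent KD is a per-design median over clusters, from curve fits of normalised cluster fluorescence. Protein titrations used SNAP-549-labelled MS2 coat protein, doubled from 0.7 or 1.5 nM to 3 µM, in Tris-HCl pH 7.5 buffer with KCl, MgCl2, BSA, DTT, tRNA and Tween-20, with no input, 200 uM small-molecule ligand, or an oligonucleotide input. The RNA switches were transcribed on Illumina chips by stalled E. coli RNA polymerase.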

[1] = input ligand: microRNA oligo, concentration not stated
[2] = Eterna round: R95, input ligand: FMN 200 uM
[3] = Eterna round: R95, input ligand: microRNA oligo, concentration not stated
[4] = Eterna round: R95, input ligand: none

Sequence | apparent KD of MS2 coat protein (input ligand: FMN 200 uM) | apparent KD of MS2 coat protein (input ligand: none) | apparent KD of MS2 coat protein [1] | apparent KD of MS2 coat protein [2] | apparent KD of MS2 coat protein [3] | apparent KD of MS2 coat protein [4]
CGCCUGUUAGGAUAUUAGUAGUAGUCAGAAUAGACUAUUACUGAGAAGGGACAUGAGGAUCACCCAUGUUGGCG [Eli x4 4.12] (Eterna round: R97, puzzle: Exclusion 4) | 22.2 nM | 18.8 nM |  |  |  | 
ACAUGAGGAUCACCCAUGUACACGUAAUGGCUCAUGUAGAGUGAGGAUAUGUGAGACGAACGAGCACAGAAGGCACAAGACAGG [Deportation 10 - Jieux - Exclusion NG 3] (Eterna round: R96, puzzle: Exclusion NG 3) | 38.3 nM | 34.8 nM | 23.8 nM |  |  | 
AUAGUAGAAGUGAGGAUAUCGUAGAUUUUUUGAAACGAGAAGGCACAUGAGGAUCACCCAUGUAAGAUGGAGGU [JR_BMOE4_Sub052] (puzzle: Brourd's mod of Exclusion 4) |  |  |  | 236 nM | 219 nM | 319 nM
ACAAGCUUUUUCAUAUCUUACAUGAGGAUCACCCAUGUUUUUGCAAUUAUGUUUGGGCUCUUUUGAGCUCGUCUUAU [JR_STOV1_Sub048] (Eterna round: R97, puzzle: Sensor, turn-off variant 1) | 13.5 nM | 14.4 nM |  |  |  | 
GUCAUGUCAGGAUAUGCUUAUGAUGGGUGCUCAGACAUGAUGCAGAAGGGACAUGAGGAUCACCCAUGUACUGA [EX4 #15] (Eterna round: R97, puzzle: Exclusion 4) | 84.8 nM | 68.3 nM |  |  |  | 
GAUUAUGCAGGCUUUAGGGACAUGAGGAUCACCCAUGUUCGUCUUAUUGAUCUAGGUACGCUGACGUACCUAGAUCU [JL-sv1-2.34 Brourd mod] (puzzle: Sensor v3, turn-off variant 1) |  |  |  | 19.3 nM | 42.5 nM | 20.4 nM
UGAGUGCUGCGAGGAUAUACAUGAGGAUCACCCAUGUUUACCUGUGAGGCAAAGCCUCACAGGUUGUAGAAGGCGCAGUACUCU [Mat - Exclusion NG 2 - Mod of JL - D41] (Eterna round: R96, puzzle: Exclusion NG 2) | 16 nM | 18.6 nM | 11.3 nM |  |  | 
GUUAUUAAUGUAGGAUAUGCAAGGCGAACCUAAGCAGAAGGACAUGAGGAUCACCCAUGUAUUGCGGUCUGCGUUCAGAUCGCU [salish99_ExNG1_r4_012] (Eterna round: R96, puzzle: Exclusion NG 1) | 39.9 nM | 19.4 nM | 15.8 nM |  |  | 
UCUUAUUGCAAGGAUAUGCAAUUUAUUUUUUAUGCAGAAGGUGCAACAUGAGGAUCACCCAUGUUUCCGGGCAU [JR_E6_Sub037] (puzzle: Exclusion 6) |  |  |  |  | 13.5 nM | 
CAGUACAGAGGAUAUACAUGAGGAUCACCCAUGUGUUCCAGCUAGGAGACUAGCAAGUGUAGAAGGCUGUACUG [Mat - Exclusion 3 - JL Mod - D8] (Eterna round: R97, puzzle: Exclusion 3) | 592 nM | 405 nM |  |  |  | 
AAGAAGAUCAAAGGAUAUGGAGCUGAAACGGCGCUAGAAGGUUGUCUAGUGUAACAUGAGGAUCACCCAUGUAGGGACCUCUAA [AK ExNG1-V2-2] (Eterna round: R96, puzzle: Exclusion NG 1) | 562 nM | 644 nM | 385 nM |  |  | 
AGCGAGCUAGGAUAUACAUGAGGAUCACCCAUGUCUUUUUAGUACUACGGUGGAAGAUGUAGAAGGAGUGAGAA [Soisza] (puzzle: Exclusion 3) |  |  |  |  | 92.3 nM | 
AUCAGCUCGUCAGGAUAUAUAUACAUGAGGAUCACCCAUGUAAGAUCAGGCUUCGGCCAAUGUAUAUAGAAGGGACGAGCUGAU [ENG2/11-B3] (Eterna round: R96, puzzle: Exclusion NG 2) | 1550 nM | 771 nM | 371 nM |  |  | 
CGCAUGUGAGGAUAUGUACUAGUUGAGCACAGUCAGCCAGAACAGAAGGCACAUGAGGAUCACCCAUGUGUACC [EX4 B.7] (Eterna round: R97, puzzle: Exclusion 4) | 154 nM | 22.3 nM |  |  |  | 
GAGUGACAUGAGGAUCACCCAUGUGAGGAUAUCGGACGGACCAAAUUAACAAUAAAUGCGAGAAGGCACAUCGG [Exclusion 1 V13] (puzzle: Exclusion 1) |  |  |  |  | 55.4 nM | 
GUAGAGUGAGGAUAUACGAGAUCGAUAGAUCGGCGAUCCAAACAUGAGGAUCACCCAUGUAGAAGGCACUCUAC [Mat - Exclusion 2 - Eli Mod - D6] (Eterna round: R97, puzzle: Exclusion 2) | 455 nM | 90.4 nM |  |  |  | 
GCUGGUCGAGGAUAUACAUGAGGAUCACCCAUGUGGUUACGUGACGAUAGUCACGAAUGUAGAAGGCGACCAGC [E3/4-A1] (Eterna round: R97, puzzle: Exclusion 3) | 2200 nM | 295 nM |  |  |  | 

Sequence | apparent KD of MS2 coat protein (input ligand: FMN 200 uM) | apparent KD of MS2 coat protein (input ligand: none) | apparent KD of MS2 coat protein [1] | apparent KD of MS2 coat protein [2] | apparent KD of MS2 coat protein [3] | apparent KD of MS2 coat protein [4]
UCUUUGUGAGGAUAUCAGUAGUAAAUAAAUAAAAUUACUACUGAGAAGGCACAUGAGGAUCACCCAUGUUCCUU [salish99_ex3_r3_091] (puzzle: Exclusion 4) |  |  |  |  | 13.5 nM | 
CAGCUGUCAGGAUAUCGUGCAUACAACGAAAGUUCUAUGUGCGAGAAGGGACAUGAGGAUCACCCAUGUUUACG [Omei Ex4 A24] (Eterna round: R97, puzzle: Exclusion 4) | 48 nM | 28.6 nM |  |  |  | 
CCUCGACAUGAGGAUCACCCAUGUCAGGAUAUUGUGUUUCGGGUUUUUUACCUUUAGGCAAGAAGGGAUGUGUG [LRO-Excl1-16] (puzzle: Exclusion 1) |  |  |  |  | 15.8 nM | 
UUAGAUUAUUGAGGAUAUGGAUCUUAUUAUUAACCAGAAGGCAAACUCAACAUGAGGAUCACCCAUGUAUAAAGGGUAUUAGUU [JR_ExcNG1_Sub099] (Eterna round: R96, puzzle: Exclusion NG 1) |  |  | 62.8 nM |  |  | 
GAAACCAGAGGAUAUGCGAAUAAAUAAAACUUUUUUUUUUAACAUGAGGAUCACCCAUGUAGAAGGCUGCAAAU [Ex2 #34] (Eterna round: R97, puzzle: Exclusion 2) | 42.2 nM | 32.7 nM |  |  |  | 
CAGAAGUGAGGAUAUAUAUGUAAGUUUGAUCCAACAAGUAUACAUGAGGAUCACCCAUGUAGAAGGUGCUUCCC [Eternabot (L2) Solution 45] (Eterna round: R97, puzzle: Exclusion 2) | 57.2 nM | 44.6 nM |  |  |  | 
UAUAUGUCAGGAUAUUAGUAGUAAAUGAAUAAAAUUAUUACUGAGAAGGGACAUGAGGAUCACCCAUGUGCCUU [Mat - Exclusion 4 - Eli Mod - D23] (Eterna round: R97, puzzle: Exclusion 4) | 20.6 nM | 16.6 nM |  |  |  | 
CUUAAGUUAGGAUAUGCGCUACGGAAUCGUGGUUAUAGAUAGCAGAAGGAACUUGAGGAUCACCCAAGUAAAUA [Reerored] (Eterna round: R97, puzzle: Exclusion 4) | 116 nM | 137 nM |  |  |  | 
GAUUAUGCGAGCUUUAGGGACAUGAGGAUCACCCAUGUUCGUCUUAUUGGUCUGAAUGCACUAACAUACCUAAAUCU [JMF 24] (puzzle: Sensor v3, turn-off variant 1) |  |  |  | 26.2 nM | 37 nM | 24.8 nM
UUAAAUCAUGUAGGAUAUGCAUAGCAAAGCUAUGCAGAAGGACAUGAGGAUCACCCAUGUGCUUGCGUCCGCGUACGGAUGCUA [Mat - Exclusion NG 1 - Mod of JL - D68] (Eterna round: R96, puzzle: Exclusion NG 1) | 733 nM | 138 nM | 90.5 nM |  |  | 
AGAAGUAGAAACCGAUCCUACAUGAGGAUCACCCAUGUAGCAAGACGUGCACGCGAAGCUCGUCAGACUACCAGAAG [salish99_TOv1_r3_001] (puzzle: Sensor v3, turn-off variant 1) |  |  |  | 379 nM | 821 nM | 685 nM
UUUCUUGGGCAAGGAUAUCCUGUGCGGUUCCGGCUCGUGUCUGUCACAUGAGGAUCACCCAUGUGGGAGAAGGUGCCUGCGGUU [Design 83] (Eterna round: R96, puzzle: Exclusion NG 2) | 15.4 nM | 15.6 nM | 10.7 nM |  |  | 
AAUAAAACAUAGGAUAUCGAAUUUAUUAUUUAACGAGAAGGAUGAACAUGAGGAUCACCCAUGUGGUAUCAUGG [Mat - Exclusion 6 - JL Mod - D24] (puzzle: Exclusion 6) |  |  |  | 258 nM | 190 nM | 207 nM
AAUAAUCAUGUAGGAUAUGCGUGGCAAAGCUAUGCAGAAGGACAUGAGGAUCACCCAUGUUCUAGCGUCUGAGAACAGAUGCUA [Mat - Exclusion NG 1 - Mod of JL - D82] (Eterna round: R96, puzzle: Exclusion NG 1) | 384 nM | 41.5 nM | 30.2 nM |  |  | 
UUACUGUGAGGAUAUUACAUUUAGCGGCUAGCAACUAGGGAUAAGAAGGCACAUGAGGAUCACCCAUGUCCCGU [Eternabot (L1) Solution 35] (Eterna round: R97, puzzle: Exclusion 4) | 95.7 nM | 21.5 nM |  |  |  | 
UACAUGAGGAUCACCCAUGUUUUGUCGUGUAUGGUAUUUAUCUAGGAUAUCAAUUGAUUAAUUUAUGAGAAGGAGAAUAUUAAU [JMF's solution 60] (Eterna round: R96, puzzle: Exclusion NG 3) | 39.9 nM | 34.4 nM | 39.1 nM |  |  | 
GUGAGCAGACGGAGAUCCUACAUGAGGAUCACCCAUGUCUCACUAGCUUUUUGCUCGUCUUAUCCUCCUCUGUUCAC [Elimod 24 - Jieux - Sensor, turn-off variant 1] (Eterna round: R97, puzzle: Sensor, turn-off variant 1) | 21.8 nM | 21.6 nM |  |  |  | 
